Results from US20220049012A1 (NAVI BIO THERAPEUTICIS, published 2022).

How the values were obtained:
[1] = target: recombinant CAIX extra-cellular domain (UniProt Q16790 38-414); assay: competitive ELISA (Friguet), soluble CAIX ECD against coated CAIX ECD
Protocol: To determine the binding affinity of the anti-CAIX scFvs, competitive ELISA was performed. The CAIX ECD fragment proteins in 2-fold serial dilution (100-13 μg/ml) were pre-incubated with anti-CAIX scFvs (NAVICA9S1: 0.62 μg/ml, NAVICA9S2: 0.32 μg/ml,
NAVICA9L2: 0.16 μg/ml, NAVICA9L3: 0.32 μg/ml) at 1:1 volume ratio at room temperature for 1 hour. The mixtures were then added into ELISA plate coated with CAIX ECD fragment proteins (0.25 or 0.5 μg/well). After 1 hour incubation, the mouse anti-HA IgG (1:5,000) and HRP-conjugated rabbit anti-mouse IgG (1:10,000) were added as the secondary and third antibodies. Following the incubation and washing, 3,3′,5,5′-Tetramethylbenzidine (TMB) was added for color development, which was stopped by HCl and detected using an ELISA plate reader. The Kd values of scFvs were estimated and expressed by molarity (M) as described by Friguet et al. (J. Immunol. Methods, 77: 305-319, 1985). N/A: not available.

[2] = target: recombinant CAIX fragment 2 (UniProt Q16790 154-353); assay: binding to recombinant CAIX fragments, epitope mapping
[3] = target: T1, recombinant CAIX fragment 3 (UniProt Q16790 228-414, limits assumed); assay: as above
T1 construct: domain: fragment 3(F3); Expressed in E. coli from pET-21a(+) or pET-32a(+); also called F3; CAIX F3

B1: NAVICA9S1 (scFv, V domains shown)
VH: AVTLDESEGGLQTPGGALSLVCKASGFTFSSYAMNWVRQAPGKGLEFVAGITNTGSSAGYGAAVKGRATISRDNGQSTVRLQLNNLRAEDTATYFCTKSYGGWCDHACAPDDIDTWGHGTEVIVSS
VL: ALTQPSSVSANPGETVKITCSGGGKNYGWYQQKSPGSAPVTVIYLNDKRPSNIPSRFSGSKSGSTHTLTITGVQAEDEAVYFCGSRDSSPTFGAGTTLTVL
notes: Chicken scFv from phage display, expressed in E. coli; also called anti-CAIX scFv NAVICA9S1; clone NAVICA9S1; not shown: linker; tags from the pComb3X vector (purified on Ni2+ Sepharose, detected with anti-HA)
- Kd [1]: 64.3 nM

B2: NAVICA9S2 (scFv, V domains shown)
VH: AVTLDESGGGLQTPRGALSLVCKASGFTFSSFNMFWVRQAPGKGLEYVAAISSDGSRSRYGSAVQGRATISRDNGQSTVRLQLNSLRAEDTGTYYCAKRPYSGCTSNNFCFNAAYIDVWGHGTEVIVSS
VL: ALTQPSSVSANLGETVEITCSGSSGSYGWYQQKSPGSAPVTVIYYNDKRPSDIPSRFSGSKSGSTGTLTITGVQAEDEAVYYCGSADRSGAGIFGAGTTLTVL
notes: Chicken scFv; also called anti-CAIX scFv NAVICA9S2; clone NAVICA9S2; not shown: linker; tags from the pComb3X vector (purified on Ni2+ Sepharose, detected with anti-HA)
- Kd [1]: 11.5 nM

B3: NAVICA9L2 (scFv, V domains shown)
VH: AVTLDESGGGLQTPGGGLSLVCKASGFTFSSYAIQWVRQAPGKGLEWVAGISDDGSWTGYGAAVKGRATISRDNGQSTMRLQLNNLRAEDTGIYYCAKGAGTGYCANRSFGCASTIDAWGHGTEVIVSS
VL: ALTQPSSVSANLGETVEITCSGSRGSYGWYQQKSPGSAPVTVIYYNVKRPSDIPSRFSGSKSGSTGTLTITGVQAEDEAVYYCGSADRSGAGIFGAGTTLTVL
notes: Chicken scFv; also called anti-CAIX scFv NAVICA9L2; clone NAVICA9L2; not shown: linker; tags from the pComb3X vector (purified on Ni2+ Sepharose, detected with anti-HA)
- Kd [1]: 140 nM
- binding result [2]: no binding
- binding result [3]: no binding

B4: NAVICA9L3 (scFv, V domains shown)
VH: AVTLDESGGGLQTPGGALSLVCKASGFTFSSFNMFWVRQAPGKGLEYVAAISSDGSRSRYGSAVQGRATISRDNGQSTVRLQLNSLRAEDTGTYYCAKRPYSGCTSNNFCFNAAYIDVWGHGTEVIVSS
VL: ALTQPSSVSANLGETVEITCSGSSGSYGWYQQKSPGSAPVTVIYYNDKRPSDIPSRFSGSKSGSTGTLTITGVQAEDEAVYYCGSADRSGAGIFGAGTTLTVL
notes: Chicken scFv; also called anti-CAIX scFv NAVICA9L3; clone NAVICA9L3; not shown: linker; tags from the pComb3X vector (purified on Ni2+ Sepharose, detected with anti-HA)
- Kd [1]: 9.26 nM
